Data published in US8815528B2, “Methods and systems for detecting MHC class I binding peptides” (Beckman Coulter, Inc., priority 2002, dated 2014).

Assays:
[1] = target: HLA-A2m monomer in ternary complex with binding peptide Mart-1 26-35L (human); test: fluorimetric plate assay, avidin-coated plate, 40 min at room temperature; 1 µg/ml antibody, 0.5 µg/ml monomer
[2] = target: HLA-A2m monomer in ternary complex with binding peptide Mart-1 26-35L (human); test: fluorimetric plate assay, avidin-coated plate, 40 min at room temperature; 0.5 µg/ml antibody, 0.5 µg/ml monomer
[3] = target: STREPTACTIN® (mutated streptavidin molecule) (Streptomyces avidinii, UniProt P22629, E68V/S69T/V71R); conditions: biotin-binding site of STREPTACTIN; read-out: binding affinity (Kd); cited from earlier work
Sequence of STREPTACTIN® (mutated streptavidin molecule) (P22629 38-163 E68V/S69T/V71R): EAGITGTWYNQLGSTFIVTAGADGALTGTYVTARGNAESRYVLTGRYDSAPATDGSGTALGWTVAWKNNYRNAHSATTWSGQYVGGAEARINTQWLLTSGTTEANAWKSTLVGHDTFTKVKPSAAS

Fluorescence units (FU) [1] | Fluorescence units (FU) [2] | Substance | Kd [3]
600 FU | 300 FU | Anti-HLA-class I monoclonal antibody conjugated to FITC (clone: B9.12.1) | –
– | – | short peptide sequence binding the biotin-binding site of a mutated streptavidin molecule (STREPTACTIN) [streptagII] | ~1000 nM
